The target of assay [1] is T1, recombinant human ICAM1 (human, UniProt P05362 28-480, limits assumed). The assay can be described thus: SPR (Biacore T200), antigen immobilised, antibody injected. (In SPR one partner is held on a chip, and binding of the other changes the refractive index at the surface.)
Description: The binding kinetics of the bispecific anti-CD38/anti-ICAM1 antibodies were evaluated using Biacore T200 (GE Healthcare). The recombinant CD38 or ICAM1 were immobilized at low density on Biacore Series S CM5 sensor chips using the amine coupling kit (GE Healthcare). Serial 3-fold dilutions of each antibody were injected at a flow rate of 30 ul/min. Each sample was analyzed with 3m association and 15 min dissociation at room temperature (25° C.). After each injection, the chip was regenerated using 10 mM Glycine pH1.5. A 1:1 Langmuir model of simultaneous fitting of kₒₙ and koff was used for kinetics analysis.
Assay [2] deals with T1, recombinant human ICAM1. Description: ELISA: plate coated with 1 ug/ml recombinant human ICAM1 ECD, serially diluted antibody, OD450.
Description: (§1) The plate was coated overnight at 4° C. with 1 μg/ml recombinant CD38 or ICAM1. After washing 3 times, the plate was blocked with 300 μl 1% BSA in PBST at 37° C. for 1 hour. Serially diluted antibodies were added and incubated at 37° C. for 1 hour. The plate was then washed 4 times with PBST and incubated with 1:5000 diluted 2nd antibody (Sigma, Cat #A0293) at 37° C. for 1 hour.
In assay [3] the target is T2, Rhesus-ICAM1 (rhesus, UniProt Q5NKV6 28-480, limits assumed).
T2 sequence (looked up): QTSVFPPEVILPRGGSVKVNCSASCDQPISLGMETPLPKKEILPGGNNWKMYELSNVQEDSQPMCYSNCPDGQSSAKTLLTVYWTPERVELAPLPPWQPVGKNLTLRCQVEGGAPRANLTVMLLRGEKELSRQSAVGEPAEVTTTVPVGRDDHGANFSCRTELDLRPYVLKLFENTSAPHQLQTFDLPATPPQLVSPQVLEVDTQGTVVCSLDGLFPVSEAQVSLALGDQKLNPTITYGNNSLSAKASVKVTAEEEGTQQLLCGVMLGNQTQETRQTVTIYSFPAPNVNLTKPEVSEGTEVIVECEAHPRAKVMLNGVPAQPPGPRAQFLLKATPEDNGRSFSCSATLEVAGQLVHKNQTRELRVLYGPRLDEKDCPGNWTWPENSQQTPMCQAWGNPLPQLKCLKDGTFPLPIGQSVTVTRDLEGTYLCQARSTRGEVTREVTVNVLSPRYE
Description: ELISA: plate coated with 1 ug/ml recombinant rhesus ICAM1 ECD, serially diluted antibody, OD450. On the technique in general: In an ELISA, binding on a coated surface is turned into a signal by an enzyme label.
Description: as §1

The target in assay [4] is T2, Rhesus-ICAM1. Description: SPR (Biacore 8K), antibody captured, antigen injected.
Description: (§2) The binding kinetics of the anti-CD38 and anti-ICAM1 antibodies were evaluated on a Biacore 8K instrument (GE Healthcare). Biacore Series S CM5 sensor chips were immobilized with monoclonal mouse anti-human IgG (Fc) antibody (human antibody capture kit from GE Healthcare). Antibodies were captured on each flow cell. Serial 3-fold dilutions of each antigen were injected at a flow rate of 30 μl/min. Each sample was analyzed with 1 min association and 10 min dissociation at room temperature (25° C.). After each injection, the chip was regenerated using 3M MgCl₂. A 1:1 Langmuir model of simultaneous fitting of kₒₙ and koff was used for kinetics analysis.
Assay [5] addresses T1, recombinant human ICAM1. The description is as above.
Description: as §2
For assay [6], the target named is T3, ICAM1 on the surface of DU145 cells (human, UniProt P05362 28-532).
T3 construct: whole, on cells
T3 sequence (P05362 28-532): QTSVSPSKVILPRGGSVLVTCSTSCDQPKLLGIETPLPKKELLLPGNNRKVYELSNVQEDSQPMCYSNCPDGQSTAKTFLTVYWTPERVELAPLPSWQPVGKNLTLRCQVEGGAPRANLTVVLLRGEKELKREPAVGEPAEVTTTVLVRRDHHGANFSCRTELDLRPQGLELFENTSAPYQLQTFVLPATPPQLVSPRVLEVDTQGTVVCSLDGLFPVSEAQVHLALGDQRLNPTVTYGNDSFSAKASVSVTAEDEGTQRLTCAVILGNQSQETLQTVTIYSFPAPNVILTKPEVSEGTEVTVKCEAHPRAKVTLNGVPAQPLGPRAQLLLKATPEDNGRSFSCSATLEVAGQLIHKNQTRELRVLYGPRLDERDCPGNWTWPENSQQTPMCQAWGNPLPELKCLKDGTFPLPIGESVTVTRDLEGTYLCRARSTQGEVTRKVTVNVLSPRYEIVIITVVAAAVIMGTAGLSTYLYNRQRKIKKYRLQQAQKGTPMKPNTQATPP
The assay can be described thus: flow cytometry, DU145 cells.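 Note: purified antibodies in dilution series bound to cells for 1 h at 4 °C, detected with a fluorescent secondary antibody (1 h, 4 °C, dark), read by flow cytometry.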 On the technique in general: Flow cytometry measures light scatter and fluorescence of single cells or particles in a stream.
Description: (§3) Harvested cells were centrifuged at 2000 rpm for 5 min and resuspended with 10-15 ml ice-cold culture medium. Cells were counted and then 3×10⁶ cells were resuspended per mL of blocking buffer (PBS plus 2% FBS). 100 μl of the cell suspension was dispensed into each well of a 96-well plate and incubated at room temperature for 10-20 min. […] While incubating, purified antibodies were diluted to the desired dilution with blocking buffer. After a 10-20 minutes incubation, cells were centrifuged for 5 min at 2000 rmp in a refrigerated centrifuge. Blocking buffer was aspirated, and cells were resuspended in 100 μl/well diluted antibodies and incubated for 1 hour at 4° C. The cells were then washed 3 times with PBS plus 2% FBS. After the final wash, the cells were resuspended in 100 μl 1:500 diluted secondary antibody (Invitrogen, Cat #: A10631) and incubated for 1 hour at 4° C. in the dark. The cells were then washed 3 times with 200 μl PBS by centrifuging at 2000 rpm for 5 min. After the last wash, the cells were resuspended in 300 μl cold PBS and analyzed on a FACSVerse™ (BD Biosciences) flow cytometer.

The target in assay [7] is T4, cynomolgus CD38 ECD (cynomolgus, UniProt Q5VAN0 44-301, biotinylated on the AviTag during preparation).
T4 construct: also called Cyno-CD38; Avi-Cyno CD38 ECD
The assay can be described thus: ELISA: plate coated with 1 ug/ml recombinant cynomolgus CD38 ECD, serially diluted antibody, OD450.
Description: as §1

Assay [8] has as its target T5, CD38 on the surface of Daudi cells (human, UniProt P28907 1-300).
T5 construct: whole, on cells
The assay can be described thus: flow cytometry, Daudi cells.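 Note: purified antibodies incubated with Daudi cells for 1 h at 4 °C, bound antibody detected by fluorescent secondary antibody and read by flow cytometry as MFI.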
Description: as §3

In assay [9] the target is T6, recombinant human CD38 (human, UniProt P28907 43-300, limits assumed). The assay can be described thus: ELISA: plate coated with 1 ug/ml recombinant human CD38 ECD, serially diluted antibody, OD450.
Description: as §1
Assay [10] concerns the target T6, recombinant human CD38. The assay can be described thus: SPR (Biacore 8K), antibody captured, antigen injected.
Description: as §2
Assay [11] has as its target T4, cynomolgus CD38 ECD. Described as above.
Description: as §2

Data on eight molecules can be found in patent publication US20220002432A1 (VIRTUOSO BINCO, published 2022).

T1 sequence (P05362 28-480 limits assumed): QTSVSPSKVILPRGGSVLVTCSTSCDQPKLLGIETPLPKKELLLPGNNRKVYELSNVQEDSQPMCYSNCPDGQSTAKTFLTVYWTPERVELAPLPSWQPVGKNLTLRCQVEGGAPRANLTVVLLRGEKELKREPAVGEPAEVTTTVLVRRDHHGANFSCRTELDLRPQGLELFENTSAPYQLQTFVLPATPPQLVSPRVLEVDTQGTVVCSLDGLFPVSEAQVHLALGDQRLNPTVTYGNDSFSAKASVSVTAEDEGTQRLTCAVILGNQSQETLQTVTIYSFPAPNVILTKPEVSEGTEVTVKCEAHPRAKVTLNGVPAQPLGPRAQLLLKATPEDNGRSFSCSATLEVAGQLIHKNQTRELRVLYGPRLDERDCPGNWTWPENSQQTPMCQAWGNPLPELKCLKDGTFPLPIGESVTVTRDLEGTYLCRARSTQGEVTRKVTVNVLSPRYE

B1: Anti-ICAM1 G12 (antibody, human IgG1, lambda, V domains shown)
VH: QVQLQESGGGLVQPGGSLRLSCAASGFTFSSYAMSWVRQAPGKGLEWVSAISGSGGSTYYADSVKGRFTISRDNSKNTLYLQMSSLRAEDTAFYYCANSAYTGGWYDYWGHGTLVTVSS
VL: ASELTQDPAVSVALGQTVKITCQGDSLRTYYASWYQQRPGQAPVLVIYGENSRPSGIPDRFSGSSSGNTASLTITGAQAEDEADYYCNSRDSSGNHLRVFGGGTKLTVLG
notes: Human IgG1 with a lambda light chain; also called anti-ICAM1 clone G12
In general, Kd refers to a measure of binding affinity in units of concentration. Usually koff stands for the rate constant with which the complex falls apart. For orientation: kon means a measure of how fast the partners come together. In general, EC50 (read off the curve) refers to the concentration giving half of the maximal effect. For orientation: EC50 means the concentration needed to bring the measured effect to its halfway point. Read a low EC50 as higher potency in that assay. For the molecule B1, in [1], the Kd came out at 3.2 nM, the koff worked out at 0.000763 s⁻¹ and the kon was determined as 242000 M⁻¹ s⁻¹. Further, the half-maximal effective concentration (EC50 (read off the curve)) in assay [2] was roughly 0.04 nM. In addition, in [3], the “EC50 (read off the curve)” value is roughly 0.04 nM. For the same molecule, in [4], the Kd is 17.7 nM, the koff amounted to 0.0224 s⁻¹ and the kon was 1.27e+06 M⁻¹ s⁻¹. Besides, in assay [5], the Kd came out at 12.2 nM, the koff came to 0.00331 s⁻¹ and the kon turned out to be 272000 M⁻¹ s⁻¹. Besides, in assay [6], the EC50 was 0.26 nM and the “Max Binding MFI” value came to 5010 MFI.

B2: 25F12 (antibody, human IgG1, kappa, V domains shown)
VH: RSLEESGGRLVTPGTPLTLTCTTSGFSLSSYDMSWVRQAPGKGLEWIGYITYGGNIYYATWAKGRFTTSKTSTTVDLKITSPTTEDTATYFCARTLYTGGRYYFSLWGPGTLVTVSS
VL: AQVLTQTPSSVSAVVGGTVTINCQSSQSIANSNEVAWYQQKLGQPPKLLIYDASTLASGVPSRFSGSGSGTQFTLIISGVQSDDAATYYCQGTVYDNVWYAAFGGGTEVVVKR
notes: Rabbit-human chimeric anti-CD38: rabbit VH and VL on human IgG1 and kappa constant regions
With B2, the “EC50 (read off the curve)” value in assay [7] is roughly 0.06 nM. Also, in assay [8], a half-maximal response (EC50) required 0.263 nM and the “Max Binding MFI” value was 1030 MFI. Also, the “EC50 (read off the curve)” value in assay [9] is roughly 0.06 nM. Also, in [10], the Kd came to 0.01 nM, the koff stood at 2.24e-05 s⁻¹ and the kon came to 1.84e+06 M⁻¹ s⁻¹. In [11], this molecule showed a Kd of 0.18 nM, a koff of 0.000185 s⁻¹ and a kon of 1.04e+06 M⁻¹ s⁻¹.

B3: 27F6 (antibody, human IgG1, kappa, V domains shown)
VH: QSLEESGGGLVKPGASLTLTCKASGFSFSSGCDMCWVRQAPGKGLEWISCIYTGSGSTYYANWAKGRFTISRTSSTTVTLQMTSLTAADTATYFCAGDSDYLGLWGPGTLVTVSS
VL: DIVMTQTPSSVEAAVGGTVTIKCQASQNIGNYLAWYQQKPGQPPKVLIYRASTLASGVPSRFKGSGSGTHFTLTISDLESADAATYYCQSYYYTTDDNYRSWAFGGGTEVVVKR
notes: as for B2
Regarding B3, the “EC50 (read off the curve)” value in assay [7] is roughly 0.06 nM. In [8], the EC50 was determined as 0.298 nM and the “Max Binding MFI” value stood at 1200 MFI. The “EC50 (read off the curve)” value in assay [9] is roughly 0.06 nM. In [10], the Kd was determined as 0.31 nM, the koff is 0.000117 s⁻¹ and the kon worked out at 376000 M⁻¹ s⁻¹. In assay [11], this molecule had a Kd of 0.28 nM, a koff of 0.00029 s⁻¹ and a kon of 1.02e+06 M⁻¹ s⁻¹.

B4: 25C3 (antibody, human IgG1, kappa, V domains shown)
VH: QEQLEESGGDLVKPGASLTLTCKASGFSFSSAYDMCWVRQAPGKGLEWVACLYTVSSDSIYYASWAKGRFTISRTSSTTVTLQMTSLTAADTATYFCARDGDYFALWGPGTLVTVSS
VL: DIVMTHTPASVEAAVGGTVTIKCQASQNIGGYLSWYQQKPGQRPKLLIYRASTLASGVPSRFKGSGSGTQFTLTISDLESADAATYYCQTYYYSGSSRYWAFGGGTEVVVKR
notes: as for B2
B4: the “EC50 (read off the curve)” value in assay [7] was roughly 0.06 nM. Besides, in assay [8], the EC50 stood at 0.347 nM and the “Max Binding MFI” value stood at 1180 MFI. Besides, the “EC50 (read off the curve)” value in [9] was roughly 0.06 nM. In assay [10], the Kd is 0.03 nM, the koff stood at 3.48e-05 s⁻¹ and the kon was determined as 1.15e+06 M⁻¹ s⁻¹. In assay [11], this molecule had a Kd of 0.15 nM, a koff of 0.000187 s⁻¹ and a kon of 1.23e+06 M⁻¹ s⁻¹.

B5: 17F7 (antibody, human IgG1, kappa, V domains shown)
VH: QSVEESGGRLVTPGTPLTLTCTASGFSLSSYYMSWVRQAPGKGLEWIGFISKTAITYYASWARGRFTISKTSTAVDLKITSPTTEDTATYFCARVDAYSAGDLWGPGTLVTVSS
VL: AQVLTQTPSSVSAAVGGTVTINCQASQSVYSDNRLSWFQQKSGQPPKLLIYSTSSLASGVPSRFSGSGSGTQFTLTISGVQSDDAASYYCQGEFICTSADCFVFGGGTEVVVKR
notes: as for B2
As for B5, in assay [7], the “EC50 (read off the curve)” value was roughly 0.06 nM. For the same molecule, in assay [8], a half-maximal response (EC50) required 0.432 nM and the “Max Binding MFI” value was determined as 1530 MFI. In assay [9], the “EC50 (read off the curve)” value was roughly 0.06 nM. In assay [10], the Kd amounted to 7.56 nM, the koff was 0.00378 s⁻¹ and the kon was determined as 500000 M⁻¹ s⁻¹. In assay [11], the Kd is 2.32 nM, the dissociation rate constant (koff) is 0.00382 s⁻¹ and the kon is 1.65e+06 M⁻¹ s⁻¹.

B6: 17E9 (antibody, human IgG1, kappa, V domains shown)
VH: QSVEESGGRLVTPGTPLTLTCTASGFSLSRYYVTWVRQAPGKGLEWIGIIYISGTTYYATWAKGRFTISKSATTVDLRIASPTTEDTATYFCAAAWPVGTYVLPLWGPGTLVTVSS
VL: AAVLTQTPSPVSAAVGGTVTIKCQSSQSVVNANNLSWYQQKPGQPPKLLIYLASTLASGVPSRFSGSGSGTQFTLTISSVQSDDAATYYCLGVYDDDGDNAFGGGTEVVVKR
notes: as for B2
As for B6, the “EC50 (read off the curve)” value in assay [7] was roughly 0.06 nM. In addition, in assay [8], the EC50 was determined as 0.263 nM and the “Max Binding MFI” value is 2260 MFI. Further, the “EC50 (read off the curve)” value in assay [9] was roughly 0.06 nM. In addition, in [10], the dissociation constant Kd was 0.15 nM, the koff is 0.000142 s⁻¹ and the association rate constant (kon) is 923000 M⁻¹ s⁻¹. Besides, in [11], binding was characterised by a dissociation constant (Kd) of 0.06 nM, the koff was determined as 0.000166 s⁻¹ and the kon came out at 2.64e+06 M⁻¹ s⁻¹.

B7: 25E4 (antibody, human IgG1, kappa, V domains shown)
VH: QSLEESGGRLVTPGTPLTLTCTVSGIDLSIYTMAWVRQAPGKGLEYIGIISGYGTTYYATWAKGRFIVSKTSTTVDLKITSPTTEDTATYFCVRTTVQSTDLWGPGTLVTVSS
VL: DIVMTQTPASVEAAVGGTVTINCQASQNIYSNLAWYQQKPGQRPKLLIYKASTLASGVSSRFKGSGSGTEFTLTISDLASADAATYYCQSYYGATSSSFGYGFGGGTEVVVKR
notes: as for B2
B7: in assay [7], the “EC50 (read off the curve)” value was roughly 0.06 nM. Also, in assay [8], the EC50 amounted to 0.503 nM and the “Max Binding MFI” value is 859 MFI. The “EC50 (read off the curve)” value in [9] is roughly 0.06 nM. Also, in assay [10], the Kd amounted to 0.07 nM, the koff was determined as 2.59e-05 s⁻¹ and the kon was 380000 M⁻¹ s⁻¹. In [11], this molecule came in with a Kd of 0.14 nM, a koff of 0.000175 s⁻¹ and a kon of 1.23e+06 M⁻¹ s⁻¹.

B8: 18E4 (antibody, human IgG1, kappa, V domains shown)
VH: QSLEESGGDLVKPGASLTLTCTASGFSFNNYWICWIRQAPGKGLEWVACIYSPSGDIKYYANWAKGRFTVSKTSSTTVTLQMTSLTGADTATYFCARELSGSSYEGYFESWGPGTLVTVSS
VL: AQVLTQTPSSVSAAVGGTVTINCQCSQSVYGHNWLAWYQHKPGQPPKLLMYRASNLASGVPSRFKGSGSGSQFTLTIGEVQSDDAATYYCQGYYNGGSYAFGGGTEVVVRR
notes: as for B2
Regarding B8, the “EC50 (read off the curve)” value in assay [7] is roughly 0.06 nM. Moreover, in assay [8], a half-maximal response (EC50) required 0.9 nM and the “Max Binding MFI” value was 1580 MFI. In addition, the “EC50 (read off the curve)” value in assay [9] is roughly 0.06 nM. Besides, in [10], the Kd was determined as 0.27 nM, the koff was determined as 8.13e-05 s⁻¹ and the kon was 303000 M⁻¹ s⁻¹. In assay [11], this molecule returned a Kd of 0.42 nM, a koff of 0.000236 s⁻¹ and a kon of 563000 M⁻¹ s⁻¹.
